Test results reported in the supplement of paper PMC12042874.
± gives the uncertainty stated by the source.

Assay: amyloid nucleation score (Sup35N fusion, yeast selection) (log enrichment); library NNK2; higher = more nucleation; inactive = no reads after selection
Method in brief: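 Libraries of peptides of 20 random codons fused to Sup35N were expressed in psi-negative yeast and induced 24 hours with 100 μM copper sulfate. Selection was 7 days at 30°C on medium lacking adenine and uracil, and plasmid inserts were Illumina-sequenced before and after selection. Nucleation score is the DiMSum log enrichment of output over input reads, centred on the mode score of non-aggregating sequences, and sequences with under 100 input reads were left out.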

| Substance | amyloid nucleation score |
| --- | --- |
| DTPCSYISCMCNTIL | 9.453 ± 0.03 |
| HRRVVAPNKCWMSLACFWDL | 4.33 ± 0.053 |
| SYDGERVI | 0.444 ± 0.28 |
| HSAMFLYTKHVSPPGSWRVL | 1.6 ± 0.13 |
| DSSKSMCLICSNCILNFSEM | 8.698 ± 0.049 |
| CVREIYYVFCINSPVIAMDC | 6.149 ± 0.038 |
| EGIVSMFVIRVYV | 0.63 ± 0.46 |
| WGDIDF | -0.385 ± 0.64 |
| LNYNYTQDR | -0.751 ± 1.1 |
| DMWQGEFKLGPRFSDENSQF | -0.172 ± 1.1 |
| HCRYWVCCQLLVILTYSEAF | inactive |
| WIYSFTMFATWTNVT | 0.092 ± 0.79 |
| FLLSV | inactive |
| KADLRKHSLDIGSCADGIRI | 0.416 ± 0.8 |
| LTGNAWSSMIYSNYNMGVYS | inactive |
| GLWVV | -1.02 ± 1.1 |
| CVIGADALASG | 0.5 ± 0.38 |
| YKPRGHEVRSVG | -0.752 ± 0.48 |
| NSYVKVHSIVG | inactive |
| SLWLSEVVCMDTVHQEIIMA | -0.163 ± 0.42 |
| MVLVMCPLS | 0.015 ± 0.25 |
| VFGKGQWVDLIRRREDVYTN | -0.759 ± 1.1 |
| LWRVGHVHSWICPAICHGKC | 4.37 ± 0.057 |
| QLNAVDMAKPVVGLFREQSY | -0.15 ± 0.39 |
| FWYENP | 2.14 ± 0.16 |

| Substance | amyloid nucleation score |
| --- | --- |
| GNLSNSQTIWFRSNTAISLN | 1.98 ± 0.14 |
| AISRRALKTHHFKWGCNVG | 0.266 ± 0.19 |
| RLSIHKSFVFDLTRSALSTM | -0.293 ± 0.55 |
| RRSYFFLVTFTLDVRDMVCF | 1.77 ± 0.18 |
| CFFPDSVTTELKKIKTL | -0.692 ± 0.41 |
| LELHGT | -1.22 ± 0.45 |
| ALPAFELGEFNNADHSHDDN | -0.464 ± 1.1 |
| LPIDVSNVGTFVEWIFFAIR | -1.5 ± 0.54 |
| SSNSEDDGNWMMLLSNKYRI | 0.559 ± 0.27 |
| RFEHGSTFGDDKL | -1.26 ± 1.1 |
| MQISKQTFPHNWVVYRSDYG | -0.776 ± 1.1 |
| TGDCC | 0.32 ± 0.33 |
| PGHWLTNINISFSACKCLMM | 8.227 ± 0.045 |
| NFWMVPLIA | -0.541 ± 0.79 |
| AQGSRDSNRRVEASACY | -0.09 ± 0.63 |
| LDVAGKVKASHKLRAWVWFS | 0.436 ± 0.8 |
| SYECCNKMQDINSMCGKLYW | 0.274 ± 1.1 |
| GCCWEKSASRSAETYWSGRA | 3.06 ± 0.14 |
| CGQFAYYGACDVGIFFRS | 4.74 ± 0.037 |
| CILRGLVASSNNSGSIGAMK | 0.361 ± 0.23 |
| ALECHIRLKWRVSVGPGVLV | 1.17 ± 0.28 |
| LGNRVRMSWNW | 0.807 ± 0.44 |
| MVHHGGCAWMSSACTCNVHC | 0.313 ± 0.27 |
| ICMAGEVGKQRGYLDGGMP | 0.505 ± 0.54 |
| DHRVLQWLTAPY | 0.353 ± 0.36 |

| Substance | amyloid nucleation score |
| --- | --- |
| KATPFAGTLRVYSTVTYCAI | 0.148 ± 1 |
| DMMCLLFGAKFNVQTGTHS | 5.231 ± 0.052 |
| PKYTDCCFFNLILIGWSVFP | 5.272 ± 0.052 |
| IITIYLLAELNSVSVTSTSI | 5.138 ± 0.03 |
| RHSHRARKVGEWGNLCLVEK | 0.26 ± 0.21 |
| YFLLVGAARIRRVKLLQ | -0.22 ± 0.62 |
| YRATYVLRVAFSWVVSCPGD | -0.377 ± 0.41 |
| GCVLAQLSSVGSGVLML | 3.14 ± 0.16 |
| WFMRDMEYFPDGLGDYG | inactive |
| ISPIESSDRMGGCSLRAILP | -0.66 ± 0.35 |
| TYIQPVARRKHLA | 0.101 ± 0.39 |
| NFHGSASNCDAIVYANFTMH | 4.61 ± 0.086 |
| ILSARRCFAQMVFVLYQNLV | -0.171 ± 0.33 |
| ANLCSAT | -0.799 ± 0.44 |
| TWRFYTFLFEVFRRSEILKR | -0.97 ± 1.1 |
| QEVFSN | -0.849 ± 1.1 |
| VAFFWIKFH | -0.807 ± 1 |
| TVYPCMYGGLGHRERHLSMS | 5.06 ± 0.063 |
| YFFRMSWPLGPMTSFRTLYL | -0.608 ± 0.4 |
| MRGAYLRFRSMCAGAAGKCD | inactive |
| MSYCNT | 1.77 ± 0.11 |
| QSRQFLSVYFYLFFLFFSFL | inactive |
| SKCNGFVVALMLVFTSSELD | inactive |
| LTFRAVSWTWCYPPELSSCS | 0.775 ± 0.49 |
| SICGEVYWWNLG | -0.978 ± 0.28 |

| Substance | amyloid nucleation score |
| --- | --- |
| YSASQTWCKQPIDCFIRGQN | -0.605 ± 0.41 |
| GAIIGIAGVPKGLSNSHSDG | -0.606 ± 1.1 |
| NINLA | inactive |
| WFIRIAIMARSFCIIALVPR | -1.22 ± 0.47 |
| FHGAYIGASSVNDPSVSD | 5.322 ± 0.04 |
| NISDTSMISNGYCIN | 0.154 ± 0.63 |
| VFLACNDCLCVWLSVEVTSE | inactive |
| AAFTRTSP | 0.858 ± 0.27 |
| YKWIIESRMGALPKQLCRRA | -0.465 ± 0.42 |
| LSGDNCPRV | -0.342 ± 0.49 |
| VRIIETGRC | 0.136 ± 0.39 |
| FPGPRRLSWFPGVQRVSMMI | -0.243 ± 0.79 |
| PFSIVIVANFYIITYEACFL | 2.85 ± 0.14 |
| FISTGRRQTFQTRTRSNLWV | 0.195 ± 0.37 |
| TVGRWH | -0.939 ± 0.76 |
| IICSNRQIRFKKGDFFIVFW | inactive |
| CSNYFLSEELRHSVEVGSES | 0.463 ± 0.18 |
| AWHSRTFVSLSLGRTSVEVL | -0.242 ± 0.45 |
| FYGGDA | 0.005 ± 0.39 |
| LVAIDSAFCTLGMPSADPVS | -0.097 ± 0.25 |
| TNDMVDHVRRSNHDI | 0.871 ± 0.31 |
| LYTMNLHYFLLFEESVS | -0.835 ± 0.28 |
| NGTLRAFVIKKVRIIDSRQV | 4.09 ± 0.076 |
| SDGEISGEGY | -0.368 ± 1.1 |
| HDYGLCTGVDIWITLSCCDR | 9.637 ± 0.029 |

| Substance | amyloid nucleation score |
| --- | --- |
| PRSVFCCLDGRHTPRKMPIY | -0.47 ± 0.74 |
| TVMCLNLLR | 6.454 ± 0.026 |
| YSSAGGHRLMGMGRIRYKTG | 0.026 ± 0.56 |
| WWVKTVLFKK | -0.947 ± 0.78 |
| VSSYCIRML | 0.11 ± 0.76 |
| HDYYMSVSLMGWY | -1.02 ± 0.34 |
| VQSGWTSKGVLPQVANRTLR | 0.827 ± 0.44 |
| FLSLLR | -1.05 ± 0.42 |
| SSMLPYSRHTIRVTKVRPPF | 0.561 ± 0.62 |
| SIGTGRAESL | 0.359 ± 0.57 |
| MLVVLMFSLSDSI | 1.67 ± 0.1 |
| FPTFVAMW | 0.35 ± 0.23 |
| AMFTSSMIRTLGCCSGSQTA | 4.14 ± 0.13 |
| FLNDI | inactive |
| FFSGGIILHYSYPTWEWYRS | 2.92 ± 0.098 |
| RIYNYWTIARKFFRV | -1.24 ± 0.55 |
| RLSYWFIKELGNTSDYDRAP | -0.541 ± 0.76 |
| LVLNKNCLKVI | -0.426 ± 0.6 |
| NSLVAVSLSAWWKPGDGSFS | 6.29 ± 0.085 |
| DVGSPWLNYSSFFIFWSTIS | -1.02 ± 1.1 |
| VAWLW | 0.909 ± 0.21 |
| RPLSAEACPYVCTVSWDGLW | 1.02 ± 0.14 |
| DRINSFLFRETVWQNNWVIS | -0.263 ± 0.79 |
| RGREL | -1.66 ± 0.54 |
| KKSFGLLENIMVSDLFPNSS | inactive |

| Substance | amyloid nucleation score |
| --- | --- |
| NFKNATIAFIGNMTMIVPRG | 8.291 ± 0.038 |
| MCYHDSVNNERINMGVLLHV | 0.067 ± 0.56 |
| FECKCKVYTPAWGCHQYLIL | inactive |
| FSWASAQLIHSV | 0.59 ± 0.64 |
| WCLMQSFDGLSDME | 0.561 ± 0.62 |
| RMFRFRRHSKHLEKLSSRFL | -0.222 ± 0.49 |
| WSLSYYISVDEDYGSRGVTM | -1.6 ± 1 |
| DLRRGSRRWRKYGTGECGLL | 0.43 ± 0.32 |
| IWFGVYIYFVDFRVILNRLL | inactive |
| NMWLCNGSGRHRFWLR | 0.269 ± 0.51 |
| HIKDNQSSSV | 0.196 ± 0.44 |
| YFVVCAHPESYSIINRFATV | 6.311 ± 0.057 |
| GFYIPRRAFS | -1.13 ± 0.25 |
| LLNSCSTVESWCNLGEMDKY | 0.122 ± 1.1 |
| VYQYWYIAISLRGRPGQCRL | 4.06 ± 0.05 |
| VCKMSSLNLCKRP | -0.133 ± 1 |
| DWFCVHKV | 0.058 ± 1 |
| TCQPGRLALNAKERGSGDRL | 0.482 ± 0.3 |
| KDRSQGKCLLGQQRQ | 0.782 ± 0.15 |
| RDISIMHRRRMNGLFNY | inactive |
| KLDVAAFVKVAE | 6.142 ± 0.039 |
| RVGACRMVRHYVGTWVQQLL | 0.246 ± 1.1 |
| ILWPLHVWYVICYRSNMWSY | 5.27 ± 0.077 |
| AVKCGNGSEF | -0.066 ± 0.45 |
| IICNLKISSMQDKGVMQAVF | -0.871 ± 0.28 |

| Substance | amyloid nucleation score |
| --- | --- |
| CLSSSSVVALGNRLETWIYA | 2.73 ± 0.086 |
| RILFRGHSVLKNWF | -1.86 ± 0.49 |
| LFDVMIQTRCLYHWNSPHNL | 5.14 ± 0.065 |
| DVLEIFVMTRGIVEVNPDSN | 8.665 ± 0.031 |
| RPGYNQMDFDWRLLIDVFDG | -0.133 ± 1 |
| SHMIRYRSVDRVHGLFHPQS | -0.232 ± 0.37 |
| EYMAITSFQKLFPHWFLSTE | inactive |
| FTCFFLVLRVKSLLMVSAVG | 6.34 ± 0.079 |
| RISIPS | inactive |
| ATVRLHNGFG | 0.127 ± 0.31 |
| DMNEDVGLGNKFC | 0.119 ± 0.54 |
| HHWRGALGFVCWGRFEERWV | -0.567 ± 0.23 |
| LRRTSVVIGRVRSSRLCGLR | 9.336 ± 0.054 |
| LECVT | 0.078 ± 0.74 |
| VSLWVIKASRVNPFYSPGGK | 0.301 ± 0.64 |
| DVCGD | -0.566 ± 0.48 |
| GLWLGWNLYVNKFV | 0.385 ± 0.33 |
| YLLSMVRKDPVSRVSLKKGW | 0.566 ± 0.66 |
| ETRRSYV | 0.563 ± 0.38 |
| IAAMTFFMMCLTYCVLWIAW | 1.71 ± 0.31 |
| NVLGSRLKLMNEGIDLALIK | 6.38 ± 0.069 |
| TSSSYTSTFDRGLMNLRTCL | -0.039 ± 0.25 |
| FFFVWESNPSIWDGTFTVEV | 0.21 ± 0.46 |
